Assay: soluble on expression in E. coli; label from the status in PepcDB or PDB records

Sequence | soluble on expression in E. coli
MSLAGVSVGTVDRVIHNRGRVSEENRKKVQTILEMVHYQPNLMARSLASKKQYHFVAITPSFTHGEYWEAISDGIDKAASEMESYNITITKLFFDQYNNKTFDDIVRNLLDEKVDGVLIATLFTDSVIRLSQELDRNEIPYVYVDSNIEGQHQLAYFGTESYDAGVIAARLLTDKISSTSDILMARIIHSGKNDSNQGKNRREGFCHYLKETGFTGNLHEVELKINDSVYNFIKLDEIFEANATIEGGIIFNSTCYILGNYLKARGMQKVKLVGYDLIERNTQLLSDGVITALVAQRPERQGYDGIKSLCNHLLFKQNPEKVNLMPIDILLKENLKYYLNNKEGHHHHHH | soluble
GQAQTQVKIISQKSDEINEAITRKIDRGSTLLHTETGYLHSRQNMILTVISNRELSKLNQLVMEIDPTAFMIIGKVNEVHGNGFTLPKKHAVKTEK | not soluble
MSLKLTVVGLGYIGLPTSIMFAKHGVDVLGVDINQQTIDKLQSGQISIEEPGLQEVYEEVLSSGKLKVSTTPEASDVFIIAVPTPNNDDQYRSCDISLVMRALDSILPFLEKGNTIIVESTIAPKTMDDFVKPVIENLGFTIGEDICLVHCPERVLPGKILEELVHNNRIIGGVTKACIEAGKYVYRTFVQGEMIETDARTAEMSKLMENTYRDVNIALANELTKICNNLNINVLDVIEMANKHPRVNIHQPGPGVGGHCLAVDPYFIIAKDPENAKLIQTGREINNSMPAYVVDTTKQIIKALSGNKVTVFGLTYKGDVDDIRESPAFDIYELLNQEPDIEVCAYDPHVELDFVEHDMSHAVKDASLVLILSDHSEFKNLSDSHFDKMKHKVIFDTKNVVKSSFEDVSYYNYGNIFNFIDKEGHHHHHH | soluble
MFKSVAKLGKSPIFYLNSQRLIHIKTLTTPNENALKFLSTDGEMLQTRGSKSIVIKNTDENLINHSKLAQQIFLQCPGVESLMIGDDFLTINKDRMVHWNSIKPEIIDLLTKQLAYGEDVISKEFHAVQEEEGEGGYKINMPKFELTEEDEEVSELIEELIDTRIRPAILEDGGDIDYRGWDPKTGTVYLRLQGACTSCSSSEVTLKYGIESMLKHYVDEVKEVIQIMDPEQEIALKEFDKLEKKLESSKNTSHEK | soluble
TSTKLNTTTSAAYLSTGIKALDSMLGSKGYQTGSQIIISGRSGTAKTLFATSFAQSAVRQGRKVLFISFEESPNDLIRHVKSINIDLMKYITKKKLHINSRRSVEMGLEDHIISIIELTEEKQFDVLILDPISALLDLGNTMEVKRLFIRFISYMKSLNKTLLFTELIPDYSKELTILGLSSLTETWIRLSNVESNGEFNRLIHIAKARGIKTSNQIKEFYVTDKGINIEAPYLGDNQMMFGSQKSA | not soluble
MDENTRNLIKKVERSVFAGNRAAAAKELGEIGDFDAVPVLLKALEDSSSKVKAAASEALGEINDPDAVPCLMKMLDYPESYVKKAAIIALGKIGTQEAVSGIVKGFRDPDKLIRKESVKALMRIGSPEAVSGLTATFTCPDSPLKRISITALGKINTYEAACGLVKALEDPDNRVRQQAVETLGKRGISDVLEELMELLKDSRQPVQEAASEALCKIIGGSESVPVLVKALGASDRKVRKASIEALGKAGNSEAVSALLKELDDDDWYLRSRAADVLADIASPEAALGLVKALDLHDAPVRKLIVSALGKIGSPETIEGLVKALDDPDNSIREAATLGLGKTGKVEAVPGLLRALHDPKNTVQEAAATSLGDMKAREAVPEFLRILEDPDSLIHKSVIFSLEKIGTPEAVAGLSRALNNPDAMVRKAAAKSLEKIKKSGLPLEKAKNIEISGFNISE | not soluble
ATSYMTCSAYQKVQDSEISFPAGVEVQVLEKQESGWWYVRFGELEGWAPSHYLVLDENEQPDPSGKE | soluble
MGSDKIHHHHHHMSQHVLLNSVDHKDIKIITERSAKYGDNVWFSVTFPAEFRSVQAHYPIFFQKDQTTGQFFAVALYGFQNNENLFLNNGTWQASYIPLTQRRQPFLIGQQSVREDGVERKQRVIHIDIASPRVSTTEGEALFHPYGGNTQYLDDIGDMLEGIHHGLIDSKHFIDLLIEHQLLESFTLDVKLDNGQQHQMMGFYTINEDTLASLSAEVLAQLHIKDYLKAIYMALASQARVRDLLNLKNAQG | not soluble
MQIRNSHLYSASRLVQNTFNASSTKEAANTIAKNNESAALSATQTARTHEGDSKGKSSNGSRSHLRSMRYAAYLAGSAYLYDKTVNDFFLSTTSLNDGKQGFTSDARLQKAEKKAEANYHAYHNRANFGGVAPTRSSLLPKLCGENLFVTMLDFRAATKVHMKNLIDTKEAHDSIANNISCIMGERVKPELLKKHGIVQTPPDFDITKGASYDCKNKYSLSGVPNQETGSYGYASRSVSNPFIEKGENHHARAINSERALTPRNCVDALQPLLQKSERLSPEAQFRAGQALLILRPLYCSSENWGDAHKVLMPFLEKKGLVSSQENQKLGATRPFTQTDMEKGIARRNTSLAGPTLNKLNIFLQKSIYNKDEKAISDLTAKKLGEMKYIPIAHFKMNEDVSSFEDSSGLADSFTGYNVSAYINHARLLSGEDRLSKKDVIAIVGCLNAIYDNASSERHTLREIAHGCFVGAGYTVEDAEDFYNDACKAAATEFYGGRAINVQSQLYSSSVDKPDS | not soluble
MNTRNFSLPQLQNLPIEEARIVADALAVHATSRQIDSAASKLAALAEAGLKGDRQAYAAYQQLLYVLSLSDDVATAQTRRWLARAIYRVEERFMPAADLSRALSEEDFQKRLEQEIAAQSRERHPMSQYVFSGSASRAQLQVFLRHQWFRTFRLYRDAADLLVNLTDVDEAAALARYLYGELGEEDEKGSHPRLLAKLLEAIGLEADFQAVSTMPEEIAYLNNRARAFRHAEVGWGLAVFYITELVVPGNHEKLYRALLQAGLSEDQAEYYKVHISLVPPRAKREWQLIARRIPDVQFQNAFLTSLSQHFRVERAYYDAIWEEMQSVK | soluble
MNLLQCYPTTTVDEMNCEEWGNGTESTQSVAACQGCIELRKEVTDLRQAVNLILPMLPLYPTIGNGFNATGLAAQPTLQHVIQQSLLRKRPVAQTPTVPQPECPGQIRPVLSSPAAALQNVIMLNPWIMGSSLKPASPTLPNGQIPTTIGETSLQGTDDQTVKWIGPSSVDSNGQKTDSSAASAGDNQNIDVIGDGSESPTSSNHSAQEIALMTSQQTFLNALKDSSFLFTNPVPTVETAPPLRVAPPINGTTNGTAKAGGPERKPRKPVNDDIVKIVRNQDLSEENISMFEIPVPKAIASDPTFRPVSEQQIIQQIIQGKKYEEMEVGECMIQLCKKLAEKRVFGPRLMSQTTVAGLNHSNYANLPIKGICYIQHVCRKVLYDKFENEEDFWDKFREAMRKLAARCRRVRHAKKTKHNREEAQAEMLSKRYGEDMPFNLNGAGLIRPKVETVSPEANILNSDQIKSQLESLFAHIPKTESETPLIEIIQQNISLFTHLIRTKVESQSPPLQGPQ | not soluble
MGKNRNKNKDKDPYIGPAKTGRNDSDSDDSESSAYTYNEDIQSIMGDVEDMNDVYDQLVDNLDRAQDKNSTTRIDGLHRVNLALTAKPAPEFINRNKETIMAVCSRMANKPDSEAQFLARLVGLVAVQAGEEISEMIAEPMSQMRTILMDASRCVFLRTACATSLAIVTRIACSEDEEVTANAKACRFAWAHTKVSGSANDIGHAKLTINDAVADQPKIVTLLSSNQLEVRLAAAETLAFLHEFMQDARPGFRFPNKEHVLSLLDQMVNDSSKKKTKKDKRAQRYAVRDIRAFIADEDDAPEVNVKIGQQTLSLDSCAIKIFYDTTCDLLHGGLAQQLLHNEVLRDVFDLGPIALEPAESANKQSRLAVHEAADKHRNQVRGKQRDKRSTVY | not soluble
MGSDKIHHHHHHMGFDLDVEKKKENRNIPQANNLKIKVIGVGGAGNNAINRMIEIGIHGVEFVAVNTDLQVLEASNADVKIQIGENITRGLGAGGRPEIGEQAALESEEKIREVLQDTHMVFITAGFGGGTGTGASPVIAKIAKEMGILTVAIVTTPFYFEGPERLKKAIEGLKKLRKHVDTLIKISNNKLMEELPRDVKIKDAFLKADETLHQGVKGISELITKRGYINLDFADIESVMKDAGAAILGIGVGKGEHRAREAAKKAMESKLIEHPVENASSIVFNITAPSNIRMEEVHEAAMIIRQNSSEDADVKFGLIFDDEVPDDEIRVIFIATRFPDEDKILFPEGDIPAIYRYGLEGLL | not soluble
MGSDKIHHHHHHMGKVLFVSGIDTDIGKSVATGYYARYLMQLGYSVITQKMVQTGCCDISSDILIHRKIQGVELADEDRKGETCCYLFDYPCSPYLAACLQNTYIDEKTIEKYTALLAQKYDYVLLEGAGGLMVPYAEGKTTLDYITAHNYPLILVTSGRLGSINHTLLSLEVCAHQNINVDTLIYNLYPPTDKLITQDTQQYFKSYLAKRFPTTKFMLMQKIDF | not soluble
MSSKEQKTPNEQVSEEMENTAEQQVEATQETGECVDPRVAELEVQLSDALQRERESLLRAKAEVENIRRRTELDVEKAHKFALERFSSELLPVIDNLERALDTADKTNTELISMIEGVELTLKSLLDAVGKFGIEVVGETHVPFNPEVHQAMTMLESADHEPNHVMMVMQKGYTLNGRLLRPAMVAVSKAKS | not soluble
MRILEEDLKNSTYRIRIESLDDLWYLRNILSEGDEVSAITFRRVEESADVQRSRERERIPITIRLKVEKIEFQDFDNRLRILGTVIEGPEDTKGKHQSITVTVDSEISITKEWDDQHIDLLKEATDEKYVTVYTAVAMDEDEAQIFLIHPYGIQQVGTVYSGRSGKYAEGNYSEASYFDQIVNALKNYSNSIIILGPGFARDRFARYCAQRGVNVIGSFPANRTDSGAVYEFITSADGAKLLSNERIARDKEIVDEFLVAVKKDMGVYGRDQTESALQMGALSDLIITDEMFRTEDGRRSLSIAQTVGTRIHIVSVSNDPGQIVKKFGGFAGILRYRVQLEHHHHHH | soluble
MPKLILLGDSTLDNFNWVPNKATVTDHLRRQLPKMEILNFAVDGFTTDSILYGEYKDCAVTSSQHTHKYFEPLKALENEQDVEHIVLSVLGNDFRIQLSKLIFMAPEERPKAIEQLINHIIKNYIQVVKEIRKVQPNAKLSIVLQYTPYVENDPYLIYFLMDKLFHHGTVSHGFLSYLQIMYYSIFGLNSKHEQQALNLLHKLMAKVYRNVFNELGDNSLAIIDLASSFDYRNSKLYKAQIEPSDEGGKLIASLITHTITHHDFQNESMLYAKPPLQPNPKILAVPLTKLKKDWFPQQIYVTQEQAITAFKQAYLLQLNKDRQSYLGLYSFFARSNVDFEHATLEKLIVHAQNYSTKKTGYRTLKVMQNLGWLTEQGNIKEESGIVRLLKN | not soluble
TLAFCRFSAPGIYFLEKLFHPVASMLVRSTTFLNKHFAKKNHNISVDELSHALELTDKAEISEENNILEGIIRFGGETVKEVMTSRLDMVDLDVRTPFKEVMQCIIENAYSRIPIYSGSRDNIKGVLYIKDLLPHVNKGDNFRWQSLIRPAYFVPETKMIDDLLRDFQANKIHIAIVVDEFGGTSGLVTMEDIIEEIVGEIHDEYDD | not soluble
MGHHHHHHSHMAGTALKRLMAVYKQLTLNPPEGIVAGPMNEENFFEWEALIMGPEDTCFEFGVFPAILSFPLDYPLSPPKMRFTCEMFHPNIYPDGRVCISILHAPGDDPHGLREQPERWSPVQSVEKILLSVVSMLAEPNDESGANVDASKMWRDDREQFYKIAKQIVQKSLGL | not soluble
MAPNASCLCVHVRSEEWDLMTFDANPYDSVKKIKEHVRSKTKVPVQDQVLLLGSKILKPRRSLSSYGIDKEKTIHLTLKVVKPSDEELPLFLVESGDEAKRHLLQVRRSSSVAQVKAMIETKTGIIPETQIVTCNGKRLEDGKMMADYGIRKGNLLFLACYCIGG | soluble
MGSDKIHHHHHHVKIAIASDHAAFELKEKVKNYLLGKGIEVEDHGTYSEESVDYPDYAKKVVQSILSNEADFGILLCGTGLGMSIAANRYRGIRAALCLFPDMARLARSHNNANILVLPGRLIGAELAFWIVDTFLSTPFDGGRHERRIRKIDEV | soluble
